PMC9482650, “Quantitative fragmentomics allow affinity mapping of interactomes” (Nature Communications, 2022)

T1: LIN7B, Q9HAP6
T1 sequence (Q9HAP6 88-185, limits assumed, looked up): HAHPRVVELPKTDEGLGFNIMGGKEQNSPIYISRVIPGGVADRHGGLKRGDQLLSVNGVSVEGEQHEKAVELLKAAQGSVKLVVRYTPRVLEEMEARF

T2: DVL3, Q92997
T2 sequence (Q92997 244-331, limits assumed, looked up): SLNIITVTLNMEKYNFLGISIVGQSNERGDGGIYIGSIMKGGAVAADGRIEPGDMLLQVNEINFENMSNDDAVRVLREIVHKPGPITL

T3: PARD3B_1, Q8TEW8
T3 sequence (Q8TEW8 196-299, limits assumed, looked up): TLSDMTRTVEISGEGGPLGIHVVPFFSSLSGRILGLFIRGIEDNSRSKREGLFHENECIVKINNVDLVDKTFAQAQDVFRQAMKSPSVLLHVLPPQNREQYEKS

T4: SHANK1, Q9Y566
T4 sequence (Q9Y566 658-767, limits assumed, looked up): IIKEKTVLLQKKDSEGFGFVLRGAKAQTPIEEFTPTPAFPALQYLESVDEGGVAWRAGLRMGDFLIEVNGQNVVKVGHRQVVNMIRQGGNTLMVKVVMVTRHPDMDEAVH

T5: MPP2, Q14168
T5 sequence (Q14168 180-250, limits assumed, looked up): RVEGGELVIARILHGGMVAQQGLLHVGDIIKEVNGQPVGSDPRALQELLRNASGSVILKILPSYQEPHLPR

T6: GRIP1_4, Q9Y3R0
T6 sequence (Q9Y3R0 467-571, limits assumed, looked up): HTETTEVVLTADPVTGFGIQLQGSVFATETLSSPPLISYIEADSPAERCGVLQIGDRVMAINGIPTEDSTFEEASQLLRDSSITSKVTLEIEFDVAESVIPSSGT

T7: HTRA4, P83105
T7 sequence (P83105 378-476, limits assumed, looked up): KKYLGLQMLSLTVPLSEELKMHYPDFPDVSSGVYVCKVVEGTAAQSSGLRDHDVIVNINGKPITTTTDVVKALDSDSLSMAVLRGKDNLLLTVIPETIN

T8: NHERF3_4, Q5T2W1
T8 sequence (Q5T2W1 373-468, limits assumed, looked up): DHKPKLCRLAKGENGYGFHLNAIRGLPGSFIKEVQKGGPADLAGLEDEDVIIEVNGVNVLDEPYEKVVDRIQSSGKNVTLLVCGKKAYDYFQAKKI

T9: PDZD7_3, Q9H5P4
T9 sequence (Q9H5P4 857-944, limits assumed, looked up): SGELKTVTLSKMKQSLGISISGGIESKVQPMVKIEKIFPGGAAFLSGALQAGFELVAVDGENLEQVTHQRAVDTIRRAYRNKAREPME

T10: FRMPD1, Q5SYB0
T10 sequence (Q5SYB0 52-145, limits assumed, looked up): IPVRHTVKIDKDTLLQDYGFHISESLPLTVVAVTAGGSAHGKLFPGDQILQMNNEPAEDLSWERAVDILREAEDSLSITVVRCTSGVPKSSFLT

T11: NHERF3_3, Q5T2W1
T11 sequence (Q5T2W1 238-333, limits assumed, looked up): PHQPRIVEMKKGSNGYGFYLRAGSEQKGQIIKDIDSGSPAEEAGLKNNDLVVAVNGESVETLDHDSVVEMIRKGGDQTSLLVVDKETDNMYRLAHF

T12: CARD11, Q9BXL7
T12 sequence (Q9BXL7 662-765, limits assumed, looked up): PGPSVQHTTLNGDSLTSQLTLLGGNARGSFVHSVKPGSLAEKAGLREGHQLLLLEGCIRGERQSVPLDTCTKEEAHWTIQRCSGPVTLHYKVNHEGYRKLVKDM

T13: APBA1_2, Q02410
T13 sequence (Q02410 742-832, limits assumed, looked up): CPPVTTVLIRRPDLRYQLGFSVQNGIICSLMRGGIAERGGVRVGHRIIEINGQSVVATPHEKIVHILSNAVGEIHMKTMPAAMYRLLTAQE

B1: ARHGEF26, Q96DR7 (peptide)
chain: GRLLGLETNV
B2: ARHGAP6, O43182 (peptide)
chain: NPDALPETLV

biological target: T1, LIN7B, Q9HAP6; experiment: holdup assay; design: key: below the threshold = too weak to quantify, mostly under pKd 3.1 to 4; settings: plain residues with an end cap or a label only (N-terminal biotin on a linker: ttds)

pKd | Binder
below the threshold | B1
3.77 | B2

biological target: T2, DVL3, Q92997; experiment: holdup assay; design: key: below the threshold = too weak to quantify, mostly under pKd 3.1 to 4; settings: plain residues with an end cap or a label only (N-terminal biotin on a linker: ttds)

pKd | Binder
below the threshold | B1
below the threshold | B2

biological target: T3, PARD3B_1, Q8TEW8; experiment: holdup assay; design: key: below the threshold = too weak to quantify, mostly under pKd 3.1 to 4; settings: plain residues with an end cap or a label only (N-terminal biotin on a linker: ttds)

pKd | Binder
below the threshold | B1
below the threshold | B2

biological target: T4, SHANK1, Q9Y566; experiment: holdup assay; design: key: below the threshold = too weak to quantify, mostly under pKd 3.1 to 4; settings: plain residues with an end cap or a label only (N-terminal biotin on a linker: ttds)

pKd | Binder
below the threshold | B1
below the threshold | B2

biological target: SCRIB_3, Q14160; experiment: holdup assay; design: key: below the threshold = too weak to quantify, mostly under pKd 3.1 to 4; settings: plain residues with an end cap or a label only (N-terminal biotin on a linker: ttds)
Sequence (Q14160 999-1103): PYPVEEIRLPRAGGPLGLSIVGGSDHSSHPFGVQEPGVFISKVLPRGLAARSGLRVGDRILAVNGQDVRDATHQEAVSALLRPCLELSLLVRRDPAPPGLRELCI

pKd | Binder
4.67 | B1
3.99 | B2

biological target: DLG1_3, Q12959; experiment: holdup assay; design: key: below the threshold = too weak to quantify, mostly under pKd 3.1 to 4; settings: plain residues with an end cap or a label only (N-terminal biotin on a linker: ttds)
Sequence (Q12959 457-571): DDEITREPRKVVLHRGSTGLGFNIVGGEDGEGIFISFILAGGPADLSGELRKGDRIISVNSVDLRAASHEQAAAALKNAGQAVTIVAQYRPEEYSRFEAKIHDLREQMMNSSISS

pKd | Binder
4.92 | B1
3.5 | B2

biological target: LDB3, O75112; experiment: holdup assay; design: key: below the threshold = too weak to quantify, mostly under pKd 3.1 to 4; settings: plain residues with an end cap or a label only (N-terminal biotin on a linker: ttds)
Sequence (O75112 1-94): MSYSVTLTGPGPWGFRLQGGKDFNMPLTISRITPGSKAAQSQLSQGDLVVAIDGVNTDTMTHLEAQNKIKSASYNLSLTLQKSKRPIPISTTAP

pKd | Binder
below the threshold | B1
below the threshold | B2

biological target: T5, MPP2, Q14168; experiment: holdup assay; design: key: below the threshold = too weak to quantify, mostly under pKd 3.1 to 4; settings: plain residues with an end cap or a label only (N-terminal biotin on a linker: ttds)

pKd | Binder
below the threshold | B1
below the threshold | B2

biological target: AHNAK1, Q09666; experiment: holdup assay; design: key: below the threshold = too weak to quantify, mostly under pKd 3.1 to 4; settings: plain residues with an end cap or a label only (N-terminal biotin on a linker: ttds)
Sequence (Q09666 4-100): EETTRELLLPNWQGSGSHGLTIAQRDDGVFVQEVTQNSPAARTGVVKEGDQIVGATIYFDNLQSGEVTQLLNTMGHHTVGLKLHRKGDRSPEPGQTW

pKd | Binder
below the threshold | B1
below the threshold | B2

biological target: T6, GRIP1_4, Q9Y3R0; experiment: holdup assay; design: key: below the threshold = too weak to quantify, mostly under pKd 3.1 to 4; settings: plain residues with an end cap or a label only (N-terminal biotin on a linker: ttds)

pKd | Binder
below the threshold | B1
below the threshold | B2

biological target: T7, HTRA4, P83105; experiment: holdup assay; design: key: below the threshold = too weak to quantify, mostly under pKd 3.1 to 4; settings: plain residues with an end cap or a label only (N-terminal biotin on a linker: ttds)

pKd | Binder
below the threshold | B1
below the threshold | B2

biological target: GRIP2_4, Q9C0E4; experiment: holdup assay; design: key: below the threshold = too weak to quantify, mostly under pKd 3.1 to 4; settings: plain residues with an end cap or a label only (N-terminal biotin on a linker: ttds)
Sequence (Q9C0E4 446-548): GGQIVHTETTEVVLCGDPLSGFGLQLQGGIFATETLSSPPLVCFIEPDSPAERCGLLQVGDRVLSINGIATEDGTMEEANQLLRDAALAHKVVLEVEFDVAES

pKd | Binder
below the threshold | B1
below the threshold | B2

biological target: GOPC, Q9HD26; experiment: holdup assay; design: key: below the threshold = too weak to quantify, mostly under pKd 3.1 to 4; settings: plain residues with an end cap or a label only (N-terminal biotin on a linker: ttds)

pKd | Binder
below the threshold | B1
4.14 | B2

biological target: T8, NHERF3_4, Q5T2W1; experiment: holdup assay; design: key: below the threshold = too weak to quantify, mostly under pKd 3.1 to 4; settings: plain residues with an end cap or a label only (N-terminal biotin on a linker: ttds)

pKd | Binder
below the threshold | B1
below the threshold | B2

biological target: PDLIM1, O00151; experiment: holdup assay; design: key: below the threshold = too weak to quantify, mostly under pKd 3.1 to 4; settings: plain residues with an end cap or a label only (N-terminal biotin on a linker: ttds)
Sequence (O00151 1-87): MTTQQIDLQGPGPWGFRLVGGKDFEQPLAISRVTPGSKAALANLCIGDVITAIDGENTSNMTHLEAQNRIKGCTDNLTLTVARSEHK

pKd | Binder
below the threshold | B1
below the threshold | B2

biological target: TJP2_1, Q9UDY2; experiment: holdup assay; design: key: below the threshold = too weak to quantify, mostly under pKd 3.1 to 4; settings: plain residues with an end cap or a label only (N-terminal biotin on a linker: ttds)
Sequence (Q9UDY2 24-128): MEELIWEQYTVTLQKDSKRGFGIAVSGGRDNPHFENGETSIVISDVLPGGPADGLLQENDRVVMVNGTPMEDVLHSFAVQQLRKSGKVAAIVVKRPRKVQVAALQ

pKd | Binder
below the threshold | B1
below the threshold | B2

biological target: NHERF4_4, Q86UT5; experiment: holdup assay; design: key: below the threshold = too weak to quantify, mostly under pKd 3.1 to 4; settings: plain residues with an end cap or a label only (N-terminal biotin on a linker: ttds)
Sequence (Q86UT5 464-550): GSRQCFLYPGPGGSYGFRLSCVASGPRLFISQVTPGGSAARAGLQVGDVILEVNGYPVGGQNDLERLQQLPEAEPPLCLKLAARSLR

pKd | Binder
below the threshold | B1
below the threshold | B2

biological target: LNX1_2, Q8TBB1; experiment: holdup assay; design: key: below the threshold = too weak to quantify, mostly under pKd 3.1 to 4; settings: plain residues with an end cap or a label only (N-terminal biotin on a linker: ttds)
Sequence (Q8TBB1 371-470): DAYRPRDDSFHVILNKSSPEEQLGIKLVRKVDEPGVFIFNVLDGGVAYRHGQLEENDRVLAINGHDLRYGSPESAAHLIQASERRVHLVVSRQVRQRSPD

pKd | Binder
below the threshold | B1
3.73 | B2

biological target: T9, PDZD7_3, Q9H5P4; experiment: holdup assay; design: key: below the threshold = too weak to quantify, mostly under pKd 3.1 to 4; settings: plain residues with an end cap or a label only (N-terminal biotin on a linker: ttds)

pKd | Binder
4.11 | B1
5.61 | B2

biological target: GORASP2, Q9H8Y8; experiment: holdup assay; design: key: below the threshold = too weak to quantify, mostly under pKd 3.1 to 4; settings: plain residues with an end cap or a label only (N-terminal biotin on a linker: ttds)

pKd | Binder
3.97 | B1
below the threshold | B2

biological target: T10, FRMPD1, Q5SYB0; experiment: holdup assay; design: key: below the threshold = too weak to quantify, mostly under pKd 3.1 to 4; settings: plain residues with an end cap or a label only (N-terminal biotin on a linker: ttds)

pKd | Binder
below the threshold | B1
below the threshold | B2

biological target: T11, NHERF3_3, Q5T2W1; experiment: holdup assay; design: key: below the threshold = too weak to quantify, mostly under pKd 3.1 to 4; settings: plain residues with an end cap or a label only (N-terminal biotin on a linker: ttds)

pKd | Binder
below the threshold | B1
below the threshold | B2

biological target: T12, CARD11, Q9BXL7; experiment: holdup assay; design: key: below the threshold = too weak to quantify, mostly under pKd 3.1 to 4; settings: plain residues with an end cap or a label only (N-terminal biotin on a linker: ttds)

pKd | Binder
below the threshold | B1
below the threshold | B2

biological target: T13, APBA1_2, Q02410; experiment: holdup assay; design: key: below the threshold = too weak to quantify, mostly under pKd 3.1 to 4; settings: plain residues with an end cap or a label only (N-terminal biotin on a linker: ttds)

pKd | Binder
4.23 | B1
below the threshold | B2
